The record followed here is the supplement of paper PMC10899765.

Settings in all cases: 20 nM; 72 h
In data set [1] the test system is MCF10A. The data set is described as follows: one-nucleolus phenotype percent effect (relative to siNT 0% and siNOL11 100%); higher = more cells with one nucleolus (ribosome biogenesis inhibition). The protocol: (§1)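 After 72 h, cells were fixed and stained with Hoechst and anti-fibrillarin, and nucleoli per nucleus were counted with CellProfiler. Values are plate-adjusted percent effect for the one-nucleolus and 5+ nucleoli phenotypes, normalised to siNT (0%) and to the positive controls siNOL11 or siKIF11 (100%), as the mean of biological triplicates. Percent viability is the nuclei count relative to siNT.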

For data set [2], the system named is MCF10A. Nature of the data set: percent viability (nuclei count relative to siNT); higher = more viable cells. The protocol:
as §1

Data set [3] concerns MCF10A. The data set is described as follows: 5+ nucleoli phenotype percent effect (relative to siNT 0% and siKIF11 100%); higher = more cells with five or more nucleoli. The protocol: as §1

Consider AUCACACAAAGGCAACUUUUGU [hsa-miR-377-3p], for which the “one-nucleolus phenotype percent effect” value in the data set on MCF10A [1] was -9.96%. Moreover, in the data set with MCF10A [2], the percent viability is 129%. Further, in the data set on MCF10A [3], the “5+ nucleoli phenotype percent effect” value was -2.87%.

Turning to UGAGGGAGUGGGUGGGAGG [hsa-miR-6127], in the data set on MCF10A [1], the “one-nucleolus phenotype percent effect” value is 3.31%. In addition, the percent viability in the data set with MCF10A [2] is 39.8%. The “5+ nucleoli phenotype percent effect” value in the data set with MCF10A [3] is -15.1%.

“UAGGGGGCGGCUUGUGGAGUGU [hsa-miR-6805-5p]”: the “one-nucleolus phenotype percent effect” value in the data set with MCF10A [1] came out at 18.2%. Besides, the percent viability in the data set with MCF10A [2] stood at 27%. Further, the “5+ nucleoli phenotype percent effect” value in the data set on MCF10A [3] was found to be 0.0052%.

In the case of CUAGGUGGGGGGCUUGAAGC [hsa-miR-6802-5p], the “one-nucleolus phenotype percent effect” value in the data set with MCF10A [1] amounted to 9.83%. For the same sequence, the percent viability in the data set on MCF10A [2] is 33.9%. In the data set on MCF10A [3], the “5+ nucleoli phenotype percent effect” value was -17%.

For UCCCCAACCCCUGCCCGCAG [hsa-miR-6793-3p], the “one-nucleolus phenotype percent effect” value with MCF10A [1] amounted to 13.9%. For the same sequence, the percent viability in the data set on MCF10A [2] amounted to 27.6%. In addition, in the data set with MCF10A [3], the “5+ nucleoli phenotype percent effect” value is -15.2%.

Take UUCCGCCAGUCGGUGGCCGG [hsa-miR-6084]: in the data set with MCF10A [1], the “one-nucleolus phenotype percent effect” value was -5.3%. For the same sequence, in the data set with MCF10A [2], the percent viability turned out to be 90.2%. Moreover, the “5+ nucleoli phenotype percent effect” value in the data set on MCF10A [3] amounted to 0.691%.

For ACUGGACUUAGGGUCAGAAGGC [hsa-miR-422a], in the data set on MCF10A [1], the “one-nucleolus phenotype percent effect” value came out at 12.5%. Moreover, in the data set on MCF10A [2], the percent viability is 37.8%. Further, the “5+ nucleoli phenotype percent effect” value with MCF10A [3] was -13.7%.

On to GUCCUAGGAGGCUCCUCUG [hsa-miR-5571-3p], for which the “one-nucleolus phenotype percent effect” value in the data set on MCF10A [1] came to 6.57%. In the data set on MCF10A [2], the percent viability was found to be 66.3%. Also, in the data set on MCF10A [3], the “5+ nucleoli phenotype percent effect” value is -30%.

Turning to “AACCAUCGACCGUUGAGUGGAC [hsa-miR-181c-3p]”, the “one-nucleolus phenotype percent effect” value in the data set on MCF10A [1] amounted to 16.6%. Moreover, in the data set with MCF10A [2], the percent viability stood at 71%. In the data set on MCF10A [3], the “5+ nucleoli phenotype percent effect” value is -21.2%.

As for “UGCCCCACCUGCUGACCACCCUC [hsa-miR-4758-3p]”, in the data set with MCF10A [1], the “one-nucleolus phenotype percent effect” value is -20.9%. The percent viability in the data set with MCF10A [2] is 76.4%. Moreover, the “5+ nucleoli phenotype percent effect” value in the data set on MCF10A [3] was found to be 31.8%.

On to GGGGCCUGGCGGUGGGCGG [hsa-miR-2861], for which, in the data set on MCF10A [1], the “one-nucleolus phenotype percent effect” value is -37.2%. For the same sequence, the percent viability in the data set on MCF10A [2] was determined as 80.1%. The “5+ nucleoli phenotype percent effect” value in the data set on MCF10A [3] was 87.4%.

On to “UCAGUCACAUAUCUAGUGUCUA [hsa-miR-4704-3p]”, for which the “one-nucleolus phenotype percent effect” value in the data set with MCF10A [1] was 5.92%. Further, in the data set on MCF10A [2], the percent viability was 54.4%. In addition, the “5+ nucleoli phenotype percent effect” value in the data set on MCF10A [3] was 10.1%.

As for AACACACCUGGUUAACCUCUUU [hsa-miR-329], in the data set on MCF10A [1], the “one-nucleolus phenotype percent effect” value is -0.532%. For the same sequence, the percent viability with MCF10A [2] amounted to 46.9%. Also, the “5+ nucleoli phenotype percent effect” value in the data set with MCF10A [3] is 4.45%.

For the sequence “CCAGAGCAGCCUGCGGUAACAGU [hsa-miR-6501-3p]”, the “one-nucleolus phenotype percent effect” value in the data set on MCF10A [1] was 1.17%. For the same sequence, the percent viability in the data set on MCF10A [2] is 35.1%. In addition, the “5+ nucleoli phenotype percent effect” value in the data set on MCF10A [3] was -17.2%.

In the case of CCUGUUGAAGUGUAAUCCCCA [hsa-miR-1267], the “one-nucleolus phenotype percent effect” value in the data set on MCF10A [1] is -18.3%. Moreover, in the data set with MCF10A [2], the percent viability is 114%. The “5+ nucleoli phenotype percent effect” value with MCF10A [3] stood at 39.6%.

Regarding “UCAAAUGCUCAGACUCCUGUGGU [hsa-miR-105-5p]”, the “one-nucleolus phenotype percent effect” value with MCF10A [1] is -6.5%. In addition, in the data set on MCF10A [2], the percent viability was determined as 37.7%. Further, the “5+ nucleoli phenotype percent effect” value in the data set on MCF10A [3] is -18%.

Take AAAGUGCUUCCUUUUAGAGGG [hsa-miR-520b]: in the data set with MCF10A [1], the “one-nucleolus phenotype percent effect” value is -19.2%. Further, the percent viability in the data set with MCF10A [2] turned out to be 70.9%. Besides, the “5+ nucleoli phenotype percent effect” value with MCF10A [3] was 70.5%.

As for CAGGGCCCUGGCUUUAGCAGA [hsa-miR-7160-3p], the “one-nucleolus phenotype percent effect” value in the data set with MCF10A [1] is 14.8%. Also, in the data set with MCF10A [2], the percent viability stood at 41.3%. For the same sequence, the “5+ nucleoli phenotype percent effect” value with MCF10A [3] was -4.58%.

Turning to UAUACCUCAGUUUUAUCAGGUG [hsa-miR-875-5p], in the data set on MCF10A [1], the “one-nucleolus phenotype percent effect” value was -18.7%. In addition, the percent viability in the data set with MCF10A [2] worked out at 119%. The “5+ nucleoli phenotype percent effect” value in the data set on MCF10A [3] came out at 32.3%.

Consider “UGAGUACCGCCAUGUCUGUUGGG [hsa-miR-1911-5p]”, for which the “one-nucleolus phenotype percent effect” value in the data set with MCF10A [1] was -20.9%. Also, in the data set on MCF10A [2], the percent viability was determined as 108%. For the same sequence, the “5+ nucleoli phenotype percent effect” value in the data set on MCF10A [3] was found to be 17.2%.
